Results taken from the supplement of paper PMC10567573.
± gives the standard deviation.

Assay: protein stability index of a GFP-peptide fusion (GPS, HEK-293T) (PSI 1-6); higher = more stable
Details: c terminus: a fixed tail appended
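Note: 24-mer peptide tiles fused after GFP, lentivirally expressed, FACS-sorted into six equal bins by GFP/DsRed ratio, decoded by Illumina sequencing, PSI is the read-weighted mean bin number.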

| Sequence | protein stability index (treatment: DMSO) | protein stability index (treatment: MLN4924 1 uM, 8 h) |
| --- | --- | --- |
| QINRLQKLIDRLEKKDLKLEPPEE [NECAB1] | 3.22 ± 0.1 | 3.7 ± 0.56 |
| CSHSFLLAVMGYDRYIAICNPLRY [OR10K2] | 2.87 ± 0.52 | 2.88 ± 0.58 |
| FGGGSTRGGSLLAGGGGFGGGSLS [KRT15] | 2.54 ± 0.43 | 3.11 ± 0.52 |
| TPTSPECDYSQYFKTIEELRDKIM [KRT15] | 3.4 ± 0.27 | 3.6 ± 0.43 |
| GVHVRRTDKVGTEAAFHPIEEYMV [FUT8] | 3.36 ± 0.29 | 3.58 ± 0.27 |
| NERMLESYLHAKKYLKPSGNMFPT [CARM1] | 2.59 ± 0.26 | 2.99 ± 0.37 |
| FSLNPRSGSLITAGRIDREELCAQ [PCDHGA10] | 3.83 ± 0.38 | 3.93 ± 0.37 |
| VSFSTGAGGWSNHHFCVILLGFLP [BET1L] | 2.82 ± 0.39 | 2.8 ± 0.36 |
| IQFIKLFGMAKIDNLLQEMLLGGS [HNF4A] | 2.84 ± 0.72 | 3.11 ± 0.61 |
| IEGLKEELAYLRKNHEEEMLALRG [KRT16] | 3.79 ± 0.35 | 3.77 ± 0.32 |
| AKHMGLEPPPEVWQVLKTHPGDPR [POLD4] | 3.77 ± 0.25 | 3.93 ± 0.48 |
| FKAWLHNSGTDQEQIHLLLSSQCF [M1AP] | 2.6 ± 0.66 | 2.43 ± 0.39 |
| IAWIKDKLLHIYYQNSIDDRLLVE [PDS5B] | 2.82 ± 0.36 | 2.43 ± 0.44 |
| KEDQAWDGASQDCPPLPAGVSFHI [FBXO34] | 3.58 ± 0.33 | 3.46 ± 0.31 |
| YALQMEQLNGILLHLESELAQTRA [KRT18] | 2.24 ± 0.18 | 2.43 ± 0.29 |
| PDSPATGAHWMRQLVSFQKLKLTN [TBX5] | 2.92 ± 0.35 | 3 ± 0.21 |
| TQSVMGFDPLPPSDTIYSYVRPER [TCF25] | 3.52 ± 0.32 | 3.73 ± 0.12 |
| NYPKGGLLDSMCPASTPSVLSSEQ [ETS2] | 4.64 ± 0.26 | 4.45 ± 0.15 |
| KRFEKQLTQIDGTLSTIEFQREAL [CHMP4C] | 3.98 ± 0.17 | 4 ± 0.27 |
| MAEGSAVSDPQHAARLLRALSSFR [GAN] | 3.16 ± 0.28 | 3.3 ± 0.24 |
| VINQADVRNNRSIIKQLKDVFERD [PLD5] | 3.2 ± 0.2 | 3.29 ± 0.35 |
| AKAEGFTASTKNCMVGYDMGATRC [CPXM2] | 3.42 ± 0.31 | 3.62 ± 0.1 |
| FTSGFNAAALDYEADGSTNNGIFQ [SPACA3] | 2.67 ± 0.53 | 3.48 ± 0.74 |

| Sequence | protein stability index (treatment: DMSO) | protein stability index (treatment: MLN4924 1 uM, 8 h) |
| --- | --- | --- |
| SLRSSSSKLAQLTLEQILEHLDNL [INTS3] | 2.31 ± 0.2 | 2.55 ± 0.26 |
| CVDVVFYNPDLKKVVEAHKIVLCA [RHOBTB3] | 3.01 ± 1.1 | 2.74 ± 0.81 |
| LVSRHDPASRRRVVEEVRRRATSG [LPCAT4] | 4.5 ± 0.19 | 4.49 ± 0.23 |
| CLKEFPEKQELHRNMLGLLGNVAE [ZER1] | 3.19 ± 0.15 | 3.3 ± 0.23 |
| IQDKLFQVAKREREAATKHSKASL [CHCHD6] | 3.86 ± 0.47 | 4.14 ± 0.22 |
| YIHSCPKMKYKGQYRPSDLLCPET [ATE1] | 2.06 ± 0.29 | 2.47 ± 0.34 |
| MQPEGLKCRMEESNAERGTAEPFP [CBY2] | 4.88 ± 0.3 | 4.69 ± 0.27 |
| CTKTCGVGVRMRDVKCYQGTDIVR [ADAMTSL2] | 3.27 ± 0.4 | 2.65 ± 0.33 |
| QEARERWNFDFVTETPLEGDFAWE [CDKN1A] | 4.39 ± 0.29 | 4.29 ± 0.24 |
| DRILERIEDSTGLNRPGPAPLSSR [TCF25] | 4.47 ± 0.21 | 4.66 ± 0.19 |
| RCVRVFLEHGADPTVKDLIGGFTA [ASB7] | 2.4 ± 0.78 | 2.04 ± 0.41 |
| KDEDLDLFPASPTREAHRESSVPV [FBF1] | 5.11 ± 0.33 | 5.02 ± 0.35 |
| PTQLRALNLTEGFAVLHWKPPQNP [TNXB] | 2.8 ± 0.66 | 3.04 ± 0.63 |
| EAPSTASSTPDSTEGGNDDSDFRE [RTN2] | 5.57 ± 0.35 | 5.63 ± 0.23 |
| KVLFALCALNALTTTVCLVAAALR [FAM189A2] | 3.13 ± 0.6 | 3.3 ± 0.21 |
| VWVGVIRYLTFFHNYNILIATLRV [MCOLN1] | 3.13 ± 0.1 | 2.86 ± 0.37 |
| FIMLSCVQLQRIPLSAVYRICLGK [TPRG1] | 3.06 ± 0.75 | 2.01 ± 0.43 |
| RRSNSPDKFKRPTPPPSPNTQTPV [CCDC6] | 5.27 ± 0.19 | 5.25 ± 0.16 |
| FGSQQSPIDVVEKYDPKTQEWSFL [KLHL12] | 3.44 ± 0.34 | 3.65 ± 0.39 |
| WCGISTDMWRSENQNRAYVTLAAH [ZBED1] | 2.37 ± 0.4 | 2.07 ± 0.05 |
| LLPDGRHAVVEVEDVPLAAKLVDL [TAF7L] | 4.28 ± 0.3 | 4.22 ± 0.18 |
| WAAKAPGASSREEPPEEPEQCPVI [SPDEF] | 5.28 ± 0.31 | 5.27 ± 0.2 |
| PSAAQTLRSFCAWQRGLNTPEDSD [ADAMTS4] | 4.29 ± 0.25 | 4.53 ± 0.17 |

| Sequence | protein stability index (treatment: DMSO) | protein stability index (treatment: MLN4924 1 uM, 8 h) |
| --- | --- | --- |
| DETHFGKMGSYYINRTFFFDVHPP [POMT2] | 2.45 ± 0.21 | 2.23 ± 0.33 |
| EGKRKAFYTCASHVTVVILFFVPC [OR4A15] | 2.77 ± 0.18 | 3.03 ± 0.38 |
| YQPKRYALSPKTTITMAHLLAARE [FAM98B] | 2.31 ± 0.091 | 2.6 ± 0.39 |
| SEHLKQRREVAKTVFCLVVIFALC [EDNRA] | 2.58 ± 1.3 | 3.31 ± 0.89 |
| CTRFTDEYQLFEELGKGAFSVVRR [CAMK2D] | 2.81 ± 0.31 | 2.84 ± 0.39 |
| NYQAHQSRVTMILFVLELEWVLST [WDFY2] | 3.1 ± 0.08 | 2.89 ± 0.67 |
| PSPAAVPRPPSNPPARGTLKTSNL [TRAF3IP2] | 5.12 ± 0.1 | 4.94 ± 0.21 |
| MGPAPRARPWTRDSASLPRKPSVP [RASAL3] | 4.08 ± 0.14 | 4.12 ± 0.23 |
| DNVPDPKDVKERFSGSLVAALSAT [TMEM175] | 4.42 ± 0.34 | 4.44 ± 0.34 |
| SGDAAAQPAFTGIKGKEGSALTEG [EPB41L3] | 5.55 ± 0.24 | 5.32 ± 0.33 |
| VNCISPLKYFSDFRPYFTIHDSEF [DENND6A] | 2.27 ± 0.68 | 1.92 ± 0.19 |
| LRGAKAFRLPGLSRREREPEPPAA [FCHO1] | 4.37 ± 0.28 | 4.14 ± 0.29 |
| LPSWADICTNLCEALQNFFSLACS [M1AP] | 2.89 ± 0.31 | 2.9 ± 0.14 |
| ACRANVKSGAIMSALSDTEIQREI [PPFIA4] | 3.41 ± 0.29 | 3.57 ± 0.47 |
| PNGKHSTNFVSRYDPRFNSWIQLP [KLHL14] | 2.32 ± 0.097 | 2.58 ± 0.24 |
| EAFYYIHNLVVACEIQVRTLASAG [ADD1] | 2.93 ± 0.63 | 2.98 ± 0.57 |
| KESLCISITVSKVDKDQPSILNSC [FBXO34] | 2.28 ± 0.33 | 2.09 ± 0.28 |
| IAIPEWFLSENATVAAETRAVIAW [CPXM2] | 2.24 ± 0.25 | 2.08 ± 0.14 |
| LRAELTKVEEEIVTLRQVLAAKER [TPD52L2] | 2.93 ± 0.31 | 3.45 ± 0.3 |
| VLSSWSRAFVSIQEEMAEDPLTYK [RHOBTB2] | 2.89 ± 0.14 | 3.17 ± 0.6 |
| AKDYADSIHAIFVETSAKNAININ [RAB22A] | 2.59 ± 0.27 | 2.48 ± 0.34 |
| AALRIANCKLFRLQLQQGLFRIRV [GAN] | 2.8 ± 0.57 | 2.58 ± 0.51 |
| HKADSIQGTARTLSPVLESPRDLQ [TNXB] | 4.75 ± 0.18 | 4.9 ± 0.14 |

| Sequence | protein stability index (treatment: DMSO) | protein stability index (treatment: MLN4924 1 uM, 8 h) |
| --- | --- | --- |
| DRFLAGVPTPKSHLQLLGAVCMFL [CCND2] | 2.63 ± 0.2 | 2.27 ± 0.21 |
| PSLHVVKVLLDCGADPDSRDFDNN [FEM1A] | 3.46 ± 0.14 | 3.82 ± 0.21 |
| PEEPAASTDPNIVRKKERGREEKC [TAF7L] | 5.28 ± 0.53 | 5.64 ± 0.32 |
| SARQGELQKVLLMLVDGIDPNFKM [EHMT1] | 1.98 ± 0.23 | 2.04 ± 0.29 |
| SLQQMQELSNILNLSYKQVKTWFQ [NANOGP8] | 2.27 ± 0.34 | 2.16 ± 0.12 |
| SKAWHQKSHFQNSREWSGKEKWWD [PBXIP1] | 2.94 ± 0.04 | 3.2 ± 0.34 |
| DFPEDGLKIFTEDLPEVESLPRDR [VPS39] | 5.31 ± 0.31 | 5.39 ± 0.068 |
| YSIPEELEKGSFVGNISKDLGLAP [PCDHGA10] | 3.59 ± 0.4 | 3.7 ± 0.29 |
| VDYPLHDLVLHTNYTATVRGLRGP [TNXB] | 2.71 ± 0.19 | 2.81 ± 0.24 |
| MGMNMNIGMSAAGMGLTGTMGMGM [CLINT1] | 2.48 ± 0.18 | 2.2 ± 0.28 |
| EDELSLVKGSRVTVMEKCSDGWWR [NCK2] | 3.68 ± 0.18 | 3.69 ± 0.32 |
| QELVLKVRIQNPSLRENDFIEIEL [ANKRD40] | 2.68 ± 1.1 | 2.38 ± 1 |
| AFGYFITACAVIILTIICYLGLPR [SLC29A1] | 2.3 ± 0.52 | 2.32 ± 0.41 |
| RENGNNSSDKVRGIETLESVPIIG [PHTF1] | 4.8 ± 0.33 | 4.53 ± 0.36 |
| LSKFDLPEEPSAEDSINNSLVQLQ [MYBL2] | 4.88 ± 0.13 | 4.85 ± 0.16 |
| SGGVASFICQATGDPRPKIVWNKK [PTPRD] | 3.46 ± 0.49 | 3.58 ± 0.11 |
| MEAQAQGLLETEPLQGTDEDAVAS [TPD52L1] | 5.56 ± 0.19 | 5.56 ± 0.16 |
| YKSWLKNLAKEQLSRENIQSSLLE [PPEF2] | 2.72 ± 0.24 | 2.86 ± 0.13 |
| PGMASHPPIPILELADHIERLKAN [PTPRD] | 3.6 ± 0.18 | 3.81 ± 0.19 |
| LLSIGPELPKPEVISQLEQGTELW [ZNF8] | 4.19 ± 0.28 | 3.54 ± 0.099 |
